Data reported in article PMC4586255 (DNA repair, 2010).

B1: hEXO1-Δ423–507: internal deletion variant (protein)
chain: MGIQGLLQFIKEASEPIHVRKYKGQVVAVDTYCWLHKGAIACAEKLAKGEPTDRYVGFCMKFVNMLLSHGIKPILVFDGCTLPSKKEVERSRRERRQANLLKGKQLLREGKVSEARECFTRSINITHAMAHKVIKAARSQGVDCLVAPYEADAQLAYLNKAGIVQAIITEDSDLLAFGCKKVILKMDQFGNGLEIDQARLGMCRQLGDVFTEEKFRYMCILSGCDYLSSLRGIGLAKACKVLRLANNPDIVKVIKKIGHYLKMNITVPEDYINGFIRANNTFLYQLVFDPIKRKLIPLNAYEDDVDPETLSYAGQYVDDSIALQIALGNKDINTFEQIDDYNPDTAMPAHSRSHSWDDKTCQKSANVSSIWHRNYSPRPESGTVSDAPQLKENPSTVGVERVISTKGLNLPRKSSIVKRPRSCSSDSTDCVSNKVSIQPLDETAVTDKENNLHESEYGDQEGKRLVDTDVARNSSDDIPNNHIPGDHIPDKATVFTDEESYSFESSKFTRTISPPTLGTLRSCFSWSGGLGDFSRTPSPSPSTALQQFRRKSDSPTSLPENNMSDVSQLKSEESSDDESHPLREEACSSQSQESGEFSLQSSNASKLSQCSSKDSDSEESDCNIKLLDSQSDQTSKLRLSHFSKKDTPLRNKVPGLYKSSSADSLSTTKIKPLGPARASGLSKKPASIQKRKHHNAENKPGLQIKLNELWKNFGFKKDSEKLPPCKKPLSPVRDNIQLTPEAEEDIFNKPECGRVQRAIFQ
modifications: 35S-cysteine label; left off: myc, C-terminal, state not stated | His6, C-terminal, state not stated
B2: hEXO1-S702X; Δ423–507: truncated from amino acid 702 with internal deletion between amino acids 423 and 507; depleted of two hMLH1 interaction regions (protein)
chain: MGIQGLLQFIKEASEPIHVRKYKGQVVAVDTYCWLHKGAIACAEKLAKGEPTDRYVGFCMKFVNMLLSHGIKPILVFDGCTLPSKKEVERSRRERRQANLLKGKQLLREGKVSEARECFTRSINITHAMAHKVIKAARSQGVDCLVAPYEADAQLAYLNKAGIVQAIITEDSDLLAFGCKKVILKMDQFGNGLEIDQARLGMCRQLGDVFTEEKFRYMCILSGCDYLSSLRGIGLAKACKVLRLANNPDIVKVIKKIGHYLKMNITVPEDYINGFIRANNTFLYQLVFDPIKRKLIPLNAYEDDVDPETLSYAGQYVDDSIALQIALGNKDINTFEQIDDYNPDTAMPAHSRSHSWDDKTCQKSANVSSIWHRNYSPRPESGTVSDAPQLKENPSTVGVERVISTKGLNLPRKSSIVKRPRSCSSDSTDCVSNKVSIQPLDETAVTDKENNLHESEYGDQEGKRLVDTDVARNSSDDIPNNHIPGDHIPDKATVFTDEESYSFESSKFTRTISPPTLGTLRSCFSWSGGLGDFSRTPSPSPSTALQQFRRKSDSPTSLPENNMSDVSQLKSEESSDDESHPLREEACSSQSQESGEFSLQSSNASKLSQCSSKDSD
modifications: 35S-cysteine label

Tested on: hMLH1
Assay: Interaction of hEXO1 variants with hMLH1
Assay type: binding, human
Conditions: GST-hMLH1 pull-down, 35S-labeled IVTT protein; Fig. S1

Molecule	hMLH1 interaction
B1	sustain partial hMLH1 interaction
B2	incapable of hMLH1 interaction
